According to patent publication US20240279281A1, “Peptide Inhibitors of Interleukin-23 Receptor” (Janssen Pharmaceutica NV, priority 2023, published 2024):
Starred links: 1 amine or outer side, 2 acyl side, 3 side chain; linkers in the order of their positions; H or OH if unused. Positions of bridges follow the written chain, without caps; N, C: chain ends. Non-standard residues stand in square brackets, D forms with d. No end group written: not given here. N,N‑dimethylasparagine = N,N-dimethylasparagine, CN(C)C(=O)C[C@H](N[*:1])C(=O)[*:2]; 2Nal(6-OH) = N[C@@H](Cc1ccc2cc(O)ccc2c1)C(=O)O; Trp(7-Me) = Cc1cccc2c(C[C@H](N)C(=O)O)c[nH]c12; d(hLys(Me3)) = C[N+](C)(C)CCCCC[C@@H](N)C(=O)O; AEF = NCCOc1ccc(C[C@H](N)C(=O)O)cc1; 3Pal = N[C@@H](Cc1cccnc1)C(=O)O; Lipidated = not defined here; NMeK = CN[C@@H](CCCCN)C(=O)O; Pen = CC(C)(S)[C@H](N)C(=O)O; lipid = not defined here; Thp = NC1(C(=O)O)CCOCC1; Sar = CNCC(=O)O

Target: T1, interleukin-23 receptor (IL-23R), Q5VWK5
T1 chain: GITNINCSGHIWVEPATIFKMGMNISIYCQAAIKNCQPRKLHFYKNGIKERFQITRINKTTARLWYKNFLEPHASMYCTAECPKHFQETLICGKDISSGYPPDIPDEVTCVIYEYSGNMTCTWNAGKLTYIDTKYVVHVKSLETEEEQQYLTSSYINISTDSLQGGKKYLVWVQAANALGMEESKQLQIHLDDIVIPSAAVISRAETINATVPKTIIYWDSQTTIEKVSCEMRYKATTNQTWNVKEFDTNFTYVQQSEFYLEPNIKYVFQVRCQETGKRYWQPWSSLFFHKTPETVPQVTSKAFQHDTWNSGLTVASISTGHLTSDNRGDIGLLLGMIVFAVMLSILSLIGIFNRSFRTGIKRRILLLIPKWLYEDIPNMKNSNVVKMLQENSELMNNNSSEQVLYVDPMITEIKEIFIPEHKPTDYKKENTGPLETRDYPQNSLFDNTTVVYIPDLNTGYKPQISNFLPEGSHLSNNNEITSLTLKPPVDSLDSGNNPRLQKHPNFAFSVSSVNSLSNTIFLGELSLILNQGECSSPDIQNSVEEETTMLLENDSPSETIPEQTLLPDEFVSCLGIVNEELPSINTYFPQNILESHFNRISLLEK
Test: cell-based or functional assay

B1: SEQ ID NO: 186 (peptide)
peptide: [Pen]NT[Trp(7-Me)]K(Ac)[Pen][2‑amino‑3‑(4-(2-aminoethoxy)phenyl)propanoic acid][2‑amino‑3‑(6-hydroxynaphthalen-2-yl)propanoic acid][Thp]K(Lipidated)N[3Pal][Sar]
modifications: disulfide 1-6 (inferred); ends not checked; also: K10 lipidated lysine, lipid not given here
PBMC pSTAT3 IC50: < 1 nM

B2: SEQ ID NO: 190 (peptide)
peptide: R[Pen]NT[Trp(7-Me)]K(Ac)[Pen][2‑amino‑3‑(4-(2-aminoethoxy)phenyl)propanoic acid][2‑amino‑3‑(6-hydroxynaphthalen-2-yl)propanoic acid][Thp]EN[3Pal][NMeK]
modifications: disulfide 2-7 (inferred); not fully specified (residue 14); ends not checked; also: X14 lipidated N-methyl-lysine, lipid not given here
PBMC pSTAT3 IC50: < 1 nM

B3: SEQ ID NO: 191 (peptide)
peptide: R[Pen]NT[Trp(7-Me)]K(Ac)[Pen][2‑amino‑3‑(4-(2-aminoethoxy)phenyl)propanoic acid][2‑amino‑3‑(6-hydroxynaphthalen-2-yl)propanoic acid][Thp]EN[3Pal][Sar]K(Lipidated)
modifications: disulfide 2-7 (inferred); ends not checked; also: K15: lipidated lysine, lipid not given here
PBMC pSTAT3 IC50: < 1 nM

B4: SEQ ID NO: 192 (peptide)
peptide: [Pen]ET[Trp(7-Me)]K(Lipidated)[Pen][2‑amino‑3‑(4-(2-aminoethoxy)phenyl)propanoic acid][2‑amino‑3‑(6-hydroxynaphthalen-2-yl)propanoic acid][Thp]K(Ac)N[3Pal][Sar]
modifications: disulfide 1-6 (inferred); ends not checked; also: K5: lipidated lysine, lipid not given here
PBMC pSTAT3 IC50: < 1 nM

B5: SEQ ID NO: 193 (peptide)
peptide: [Pen]ET[Trp(7-Me)]K(Ac)[Pen][2‑amino‑3‑(4-(2-aminoethoxy)phenyl)propanoic acid][2‑amino‑3‑(6-hydroxynaphthalen-2-yl)propanoic acid][Thp]K(Lipidated)N[3Pal][Sar]
modifications: disulfide 1-6 (inferred); ends not checked; also: K10: lipidated lysine, lipid not given here
PBMC pSTAT3 IC50: < 1 nM

B6: SEQ ID NO: 198 (peptide)
peptide: [Pen]NT[Trp(7-Me)]K(Ac)[Pen][5‑(4-(2-amino-2-carboxyethyl)phenoxy)‑N,N,N‑trimethylpentan‑1‑aminium][2‑amino‑3‑(6-hydroxynaphthalen-2-yl)propanoic acid][Thp]K(Lipidated)N[3Pal][Sar]
modifications: disulfide 1-6 (inferred); ends not checked; also: K10: lipidated lysine, lipid not given here
PBMC pSTAT3 IC50: < 1 nM

B7: SEQ ID NO: 204 (peptide)
peptide: [(R)‑3‑carboxy‑2‑(4-(((R)-5-carboxy-5-hydrazineylpentyl)amino)-4-oxobutanamido)‑N,N,N‑trimethylpropan‑1‑aminium][Pen]NT[Trp(7-Me)]K(Ac)[Pen][2‑amino‑3‑(4-(2-aminoethoxy)phenyl)propanoic acid][2‑amino‑3‑(6-hydroxynaphthalen-2-yl)propanoic acid][Thp]EN[3Pal][NMeK]
modifications: disulfide 2-7 (inferred); not fully specified (residue 14); ends not checked; also: X14: lipidated N-methyl-lysine, lipid not given here
PBMC pSTAT3 IC50: < 1 nM

B8: SEQ ID NO: 210 (peptide)
peptide: [(R)‑3‑carboxy‑2‑(4-(((R)-5-carboxy-5-hydrazineylpentyl)amino)-4-oxobutanamido)‑N,N,N‑trimethylpropan‑1‑aminium][Pen]NT[Trp(7-Me)]K(Ac)[Pen][2‑amino‑3‑(4-(2-aminoethoxy)phenyl)propanoic acid][2‑amino‑3‑(6-hydroxynaphthalen-2-yl)propanoic acid][Thp]EN[3Pal][NMeK]
modifications: disulfide 2-7 (inferred); not fully specified (residue 14); ends not checked; also: X14: lipidated N-methyl-lysine, lipid not given here
PBMC pSTAT3 IC50: < 1 nM

B9: SEQ ID NO: 214 (peptide)
peptide: [Pen]ET[Trp(7-Me)]K(lipid)[Pen][2‑amino‑3‑(4-(2-aminoethoxy)phenyl)propanoic acid][2‑amino‑3‑(6-hydroxynaphthalen-2-yl)propanoic acid][Thp]K(Ac)N[3Pal][Sar]
modifications: disulfide 1-6 (inferred); ends not checked; also: K5: lipidated lysine, lipid not given here
PBMC pSTAT3 IC50: < 1 nM

B10: SEQ ID NO: 215 (peptide)
peptide: [Pen]ET[Trp(7-Me)]K(Ac)[Pen][2‑amino‑3‑(4-(2-aminoethoxy)phenyl)propanoic acid][2‑amino‑3‑(6-hydroxynaphthalen-2-yl)propanoic acid][Thp]K(lipid)N[3Pal][Sar]
modifications: disulfide 1-6 (inferred); ends not checked; also: K10: lipidated lysine, lipid not given here
PBMC pSTAT3 IC50: < 0.1 nM

B11: SEQ ID NO: 216 (peptide)
peptide: K(lipid)[Pen]NT[Trp(7-Me)]K(Ac)[Pen][2‑amino‑3‑(4-(2-aminoethoxy)phenyl)propanoic acid][2‑amino‑3‑(6-hydroxynaphthalen-2-yl)propanoic acid][Thp]K(Ac)N[3Pal][Sar]
modifications: disulfide 2-7 (inferred); ends not checked; also: Lys1 lipidated, lipid not given here
PBMC pSTAT3 IC50: < 0.1 nM

B12: SEQ ID NO: 217 (peptide)
peptide: R[Pen]NT[Trp(7-Me)]K(Ac)[Pen][2‑amino‑3‑(4-(2-aminoethoxy)phenyl)propanoic acid][2‑amino‑3‑(6-hydroxynaphthalen-2-yl)propanoic acid][Thp]EN[3Pal][Sar]
modifications: disulfide 2-7 (inferred); ends not checked
PBMC pSTAT3 IC50: < 0.1 nM

B13: SEQ ID NO: 218 (peptide)
peptide: R[Pen]NT[Trp(7-Me)]K(Ac)[Pen][2‑amino‑3‑(4-(2-aminoethoxy)phenyl)propanoic acid][2‑amino‑3‑(6-hydroxynaphthalen-2-yl)propanoic acid][Thp]EN[3Pal][Sar]K(lipid)
modifications: disulfide 2-7 (inferred); ends not checked; also: Lys15 lipidated, lipid not given here
PBMC pSTAT3 IC50: > 1 nM

B14: SEQ ID NO: 220 (peptide)
peptide: R[Pen]NT[Trp(7-Me)]K(Ac)[Pen][2‑amino‑3‑(4-(2-aminoethoxy)phenyl)propanoic acid][2‑amino‑3‑(6-hydroxynaphthalen-2-yl)propanoic acid][Thp]K(Ac)N[3Pal][Sar]
modifications: disulfide 2-7 (inferred); ends not checked
PBMC pSTAT3 IC50: < 1 nM

B15: SEQ ID NO: 221 (peptide)
peptide: R[Pen]NT[Trp(7-Me)]K(Ac)[Pen][2‑amino‑3‑(4-(2-aminoethoxy)phenyl)propanoic acid][2‑amino‑3‑(6-hydroxynaphthalen-2-yl)propanoic acid][Thp]K(Ac)N[3Pal][Sar]K(lipid)
modifications: disulfide 2-7 (inferred); ends not checked; also: Lys15 lipidated, lipid not given here
PBMC pSTAT3 IC50: > 1 nM

B16: SEQ ID NO: 229 (peptide)
peptide: K(lipid)[Pen]NT[Trp(7-Me)]K(Ac)[Pen][AEF][2Nal(6-OH)][Thp]EN[3Pal][Sar]
modifications: disulfide 2-7 (inferred); ends not checked; also: Lys1 lipidated, lipid not given here
PBMC pSTAT3 IC50: < 1 nM

B17: SEQ ID NO: 239 (peptide)
peptide: [d(hLys(Me3))][Pen][N,N‑dimethylasparagine]T[Trp(7-Me)]K(lipid)[Pen][AEF][2Nal(6-OH)][Thp]EN[3Pal][Sar]
modifications: disulfide 2-7 (inferred); ends not checked; also: Lys6 lipidated, lipid not given here
PBMC pSTAT3 IC50: < 1 nM

B18: SEQ ID NO: 241 (peptide)
peptide: [Pen]NT[Trp(7-Me)]K(Ac)[Pen][AEF][2Nal(6-OH)][Thp]K(Ac)N[3Pal][Sar]K(lipid)
modifications: disulfide 1-6 (inferred); ends not checked; also: Lys14 lipidated, lipid not given here
PBMC pSTAT3 IC50: < 1 nM

B19: SEQ ID NO: 244 (peptide)
peptide: R[Pen]NT[Trp(7-Me)]K(Ac)[Pen][AEF][2Nal(6-OH)][Thp]EN[3Pal][Sar]K(lipid)
modifications: disulfide 2-7 (inferred); ends not checked; also: Lys15 lipidated, lipid not given here
PBMC pSTAT3 IC50: < 1 nM
